According to paper PMC10397247:

What was measured:
[1] = molecular target: T1, 4H145-bN; experiment: two-hybrid library CCNG1; details: mean of both orientations;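 note: natural log of median RNA to DNA barcode read ratio; higher means stronger binding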
T1 chain: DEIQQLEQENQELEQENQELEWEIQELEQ

[2] = molecular target: T2, 4H2619-bN; experiment: two-hybrid library CCNG1;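 note: natural log of median RNA to DNA barcode read ratio; higher means stronger binding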
T2 chain: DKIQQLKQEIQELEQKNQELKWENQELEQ

[3] = molecular target: T3, 4H2691-bN; experiment: two-hybrid library CCNG1;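 note: natural log of median RNA to DNA barcode read ratio; higher means stronger binding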
T3 chain: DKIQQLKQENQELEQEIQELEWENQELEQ

[4] = molecular target: T4, 4H3070-bN; experiment: two-hybrid library CCNG1; details: mean of both orientations;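 note: natural log of median RNA to DNA barcode read ratio; higher means stronger binding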
T4 chain: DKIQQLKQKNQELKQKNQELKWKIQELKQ

[5] = molecular target: T5, 4H342-bN; experiment: two-hybrid library CCNG1;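 note: natural log of median RNA to DNA barcode read ratio; higher means stronger binding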
T5 chain: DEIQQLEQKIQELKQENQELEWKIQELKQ

[6] = molecular target: T6, 4H3632-bN; experiment: two-hybrid library CCNG1;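 note: natural log of median RNA to DNA barcode read ratio; higher means stronger binding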
T6 chain: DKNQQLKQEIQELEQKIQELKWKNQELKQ

[7] = molecular target: T7, 4H496-bN; experiment: two-hybrid library CCNG1
T7 chain: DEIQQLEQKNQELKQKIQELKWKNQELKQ

[8] = molecular target: T8, 4H1072-bH; experiment: two-hybrid library CCNG1
T8 chain: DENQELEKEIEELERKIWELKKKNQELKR

[9] = molecular target: T9, 4H1193-bH; experiment: two-hybrid library CCNG1
T9 chain: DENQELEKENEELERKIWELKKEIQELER

[10] = molecular target: T10, 4H1387-bH; experiment: two-hybrid library CCNG1
T10 chain: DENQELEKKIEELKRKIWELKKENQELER

[11] = molecular target: T11, 4H1406-bH; experiment: two-hybrid library CCNG1
T11 chain: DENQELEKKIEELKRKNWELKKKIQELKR

[12] = molecular target: T12, 4H1899-bN; experiment: two-hybrid library CCNG1
T12 chain: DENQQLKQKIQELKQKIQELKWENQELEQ

[13] = molecular target: T13, 4H2568-bH; experiment: two-hybrid library CCNG1
T13 chain: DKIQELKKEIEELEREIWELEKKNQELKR

[14] = molecular target: T14, 4H2619-bH; experiment: two-hybrid library CCNG1
T14 chain: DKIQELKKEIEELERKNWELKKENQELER

[15] = molecular target: T15, 4H2745-bH; experiment: two-hybrid library CCNG1
T15 chain: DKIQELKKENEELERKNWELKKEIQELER

[16] = molecular target: T16, 4H3297-bN; experiment: two-hybrid library CCNG1
T16 chain: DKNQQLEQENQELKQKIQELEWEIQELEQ

[17] = molecular target: T17, 4H344-bH; experiment: two-hybrid library CCNG1
T17 chain: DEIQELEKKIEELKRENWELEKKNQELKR

[18] = molecular target: T18, 4H3592-bH; experiment: two-hybrid library CCNG1
T18 chain: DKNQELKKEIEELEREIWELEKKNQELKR

[19] = molecular target: T19, 4H3601-bH; experiment: two-hybrid library CCNG1
T19 chain: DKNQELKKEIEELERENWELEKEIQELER

[20] = molecular target: T20, 4H363-bH; experiment: two-hybrid library CCNG1
T20 chain: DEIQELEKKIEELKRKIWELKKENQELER

[21] = molecular target: T21, 4H3907-bH; experiment: two-hybrid library CCNG1
T21 chain: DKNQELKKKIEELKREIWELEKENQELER

[22] = molecular target: T22, 4H3961-bH; experiment: two-hybrid library CCNG1
T22 chain: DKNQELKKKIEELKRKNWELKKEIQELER

[23] = molecular target: T23, 4H4038-bH; experiment: two-hybrid library CCNG1
T23 chain: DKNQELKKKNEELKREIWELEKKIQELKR

[24] = molecular target: T24, 4H470-bH; experiment: two-hybrid library CCNG1
T24 chain: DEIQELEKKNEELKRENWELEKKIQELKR

[25] = molecular target: T25, P11A-bP; experiment: two-hybrid library CCNG1
T25 chain: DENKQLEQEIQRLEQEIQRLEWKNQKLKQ

[26] = molecular target: T26, P12A-bP; experiment: two-hybrid library CCNG1
T26 chain: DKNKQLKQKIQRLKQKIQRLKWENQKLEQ

[27] = molecular target: T27, P1A-bP; experiment: two-hybrid library CCNG1
T27 chain: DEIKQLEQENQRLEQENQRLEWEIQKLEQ

[28] = molecular target: T28, P2A-bP; experiment: two-hybrid library CCNG1
T28 chain: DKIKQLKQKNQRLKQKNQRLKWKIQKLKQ

[29] = molecular target: T29, P3A-bP; experiment: two-hybrid library CCNG1
T29 chain: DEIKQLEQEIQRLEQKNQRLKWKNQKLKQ

[30] = molecular target: T30, P4A-bP; experiment: two-hybrid library CCNG1
T30 chain: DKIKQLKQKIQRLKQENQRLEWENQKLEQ

[31] = molecular target: T31, P5A-bP; experiment: two-hybrid library CCNG1
T31 chain: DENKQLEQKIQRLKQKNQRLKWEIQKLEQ

[32] = molecular target: T32, P6A-bP; experiment: two-hybrid library CCNG1
T32 chain: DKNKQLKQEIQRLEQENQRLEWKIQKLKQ

[33] = molecular target: T33, P7A-bP; experiment: two-hybrid library CCNG1
T33 chain: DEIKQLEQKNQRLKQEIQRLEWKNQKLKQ

[34] = molecular target: T34, P8A-bP; experiment: two-hybrid library CCNG1
T34 chain: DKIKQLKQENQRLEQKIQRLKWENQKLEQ

[35] = molecular target: T35, P2-AA-1HAA-E; experiment: two-hybrid library CCmax; details: mean of both orientations
T35 chain: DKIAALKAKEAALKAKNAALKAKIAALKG

[36] = molecular target: T36, P2-AA-1HAA-I; experiment: two-hybrid library CCmax; details: mean of both orientations
T36 chain: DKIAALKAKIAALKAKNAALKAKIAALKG

[37] = molecular target: T37, P2-AA-1HAA-R; experiment: two-hybrid library CCmax; details: mean of both orientations
T37 chain: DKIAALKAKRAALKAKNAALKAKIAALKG

[38] = molecular target: T38, P2-AA-1HAA-S; experiment: two-hybrid library CCmax; details: mean of both orientations
T38 chain: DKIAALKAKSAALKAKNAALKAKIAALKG

[39] = molecular target: T39, P2-AA-1HAA-T; experiment: two-hybrid library CCmax; details: mean of both orientations
T39 chain: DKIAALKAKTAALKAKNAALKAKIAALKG

[40] = molecular target: T40, P2-AA-1HAA-V; experiment: two-hybrid library CCmax; details: mean of both orientations
T40 chain: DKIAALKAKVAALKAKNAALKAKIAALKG

[41] = molecular target: T41, P2-AA-1HAA-Y; experiment: two-hybrid library CCmax; details: mean of both orientations
T41 chain: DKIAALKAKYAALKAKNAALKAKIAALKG

[42] = molecular target: T42, P2-AA; experiment: two-hybrid library CCmax; details: mean of both orientations
T42 chain: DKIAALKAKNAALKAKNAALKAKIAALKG

[43] = molecular target: T43, P2-AA-1HAA-D; experiment: two-hybrid library CCmax; details: mean of both orientations
T43 chain: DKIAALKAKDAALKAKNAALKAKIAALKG

[44] = molecular target: T44, P2-AA-1HAA-K; experiment: two-hybrid library CCmax; details: mean of both orientations
T44 chain: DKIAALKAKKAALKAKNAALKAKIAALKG

[45] = molecular target: T45, P9A-bP; experiment: two-hybrid library CCNG1
T45 chain: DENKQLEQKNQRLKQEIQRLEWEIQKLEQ

[46] = molecular target: T46, P11mSN; experiment: two-hybrid library CCNG1
T46 chain: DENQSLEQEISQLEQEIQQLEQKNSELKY

[47] = molecular target: T47, P12mSN; experiment: two-hybrid library CCNG1
T47 chain: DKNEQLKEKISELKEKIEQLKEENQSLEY

[48] = molecular target: T48, P1mSN; experiment: two-hybrid library CCNG1
T48 chain: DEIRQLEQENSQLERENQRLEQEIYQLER

[49] = molecular target: T49, P2mSN; experiment: two-hybrid library CCNG1
T49 chain: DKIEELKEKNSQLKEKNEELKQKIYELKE

[50] = molecular target: T50, P3mSN; experiment: two-hybrid library CCNG1
T50 chain: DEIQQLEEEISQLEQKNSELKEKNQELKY

[51] = molecular target: T51, P4mSN; experiment: two-hybrid library CCNG1
T51 chain: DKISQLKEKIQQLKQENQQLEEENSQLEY

[52] = molecular target: T52, P5mSN; experiment: two-hybrid library CCNG1
T52 chain: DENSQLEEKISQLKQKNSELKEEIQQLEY

[53] = molecular target: T53, P6mSN; experiment: two-hybrid library CCNG1
T53 chain: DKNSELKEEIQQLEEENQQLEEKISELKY

[54] = molecular target: T54, P7mSN; experiment: two-hybrid library CCNG1
T54 chain: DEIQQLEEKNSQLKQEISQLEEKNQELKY

[55] = molecular target: T55, P8mSN; experiment: two-hybrid library CCNG1
T55 chain: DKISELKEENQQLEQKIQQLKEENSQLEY

[56] = molecular target: T56, P9mSN; experiment: two-hybrid library CCNG1
T56 chain: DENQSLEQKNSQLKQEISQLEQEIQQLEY

DEIQQLEQENQELEQENQELEWEIQELEQ [4H145-bN]
interaction score [1]: -0.563 | interaction score [2]: -0.87 | interaction score [3]: -1.25 | interaction score [4]: 2.01 | interaction score [5]: -2.65 | interaction score [6]: -1.49 | interaction score [7]: -0.916

DENQELEKEIEELERKIWELKKKNQELKR [4H1072-bH]
interaction score [8]: 0.311 | interaction score [9]: 0.426 | interaction score [10]: 1.17 | interaction score [11]: 0.174 | interaction score [12]: 1.84 | interaction score [13]: -0.817 | interaction score [14]: 1.65 | interaction score [15]: -0.184 | interaction score [16]: 0.827 | interaction score [17]: 1.31 | interaction score [18]: 2.09 | interaction score [19]: 0.621 | interaction score [20]: 0.487 | interaction score [21]: 1.52 | interaction score [22]: 0.132 | interaction score [23]: 0.634 | interaction score [24]: -1.58

DKNKQLKQENQRLEQKIQRLKWKIQKLKQ [P10A-bP]
interaction score [25]: 1.25 | interaction score [26]: -1.01 | interaction score [27]: 0.96 | interaction score [28]: -1.7 | interaction score [29]: -0.806 | interaction score [30]: -0.87 | interaction score [31]: -1.01 | interaction score [32]: -0.83 | interaction score [33]: -1.19 | interaction score [34]: -1.35

DEIAALEAEIAALEAENAALEAEIAALEG [P1-AA-1HAA-I]
interaction score [35]: 1.82 | interaction score [36]: 2.11 | interaction score [37]: 2.06 | interaction score [38]: 2.03 | interaction score [39]: 1.91 | interaction score [40]: 1.69 | interaction score [41]: 2.08 | interaction score [42]: 2.21

DEIAALEAERAALEAENAALEAEIAALEG [P1-AA-1HAA-R]
interaction score [43]: 0.454 | interaction score [35]: 0.63 | interaction score [36]: 1.99 | interaction score [44]: 0.734 | interaction score [37]: 1.34 | interaction score [38]: 1.28 | interaction score [39]: 1.95 | interaction score [40]: 2.29 | interaction score [41]: 1.63 | interaction score [42]: 1.76

DENKQLEQEIQRLEQEIQRLEWKNQKLKQ [P11A-bP]
interaction score [25]: -0.677 | interaction score [26]: 1.42 | interaction score [27]: -0.431 | interaction score [28]: -0.486 | interaction score [29]: -2.11 | interaction score [30]: -0.08 | interaction score [31]: -0.091 | interaction score [32]: 0 | interaction score [33]: -2.06 | interaction score [34]: 0.201 | interaction score [45]: 0.853

DENQSLEQEISQLEQEIQQLEQKNSELKY [P11mSN]
interaction score [46]: 0.11 | interaction score [47]: 1.46 | interaction score [48]: -0.413 | interaction score [49]: -1.32 | interaction score [50]: -0.972 | interaction score [51]: 0.374 | interaction score [52]: -0.097 | interaction score [53]: -0.793 | interaction score [54]: -1.52 | interaction score [55]: 0.0166 | interaction score [56]: -1.27
